Test results: patent US20080076717A1

Target: SPR-8: ASARM-PO4 biotin
Assay: SPR (Biacore 3000): biotinylated ASARM-PO4 captured on neutravidin, PHEX as analyte

“PHEX (free soluble-PHEX analyte) (from UniProt P78562 46-749) (enzyme)” showed a Kd of 168 nM.
